Assays:
[1] = molecular target: clam E3-C/cyclosome complex, activated, partially purified
[2] = molecular target: non-specific ubiquitin-protein ligase (E3) from clam oocyte Fraction 1A

B1: recombinant clam E2-C, bacterially expressed (protein)
chain: MSGQNIDPAANQVRQKERPRDMTTSKERHSVSKRLQQELRTLLMSGDPGITAFPDGDNLFKWVATLDGPKDTVYESLKYKLTLEFPSDYPYKPPVVKFTTPCWHPNVDQSGNICLDILKENWTASYDVRTILLSLQSLLGEPNNASPLNAQAADMWSNQTEYKKVLHEKYKTAQSKDK
half-maximal activation of cyclin ubiquitination [1]: half-maximal activation was obtained with 0.05 µM recombinant E2 | formation of ubiquitin-protein conjugates [2]: the recombinant clam E2 had no significant influence on the formation of ubiquitin-protein conjugates by the non-specific E3

Source: patent US6528633
